Molecular target: human myosin VI heavy chain, full length, containing both the large-insertion (LI) and small-insertion (SI) regions (human) (UniProt Q9UM54)
Assay: cryo-EM structure; single-particle cryo-EM of myosin VI/CaM in PB, TB + AMPPNP and PB + ATP, the three datasets combined; autoinhibited state, 3.54 Å (4.14 Å map with the SAH-E)

Sequence of human myosin VI heavy chain, full length, containing both the large-insertion (LI) and small-insertion (SI) regions (human) (Q9UM54 other isoform, or with tags, fused parts or gaps): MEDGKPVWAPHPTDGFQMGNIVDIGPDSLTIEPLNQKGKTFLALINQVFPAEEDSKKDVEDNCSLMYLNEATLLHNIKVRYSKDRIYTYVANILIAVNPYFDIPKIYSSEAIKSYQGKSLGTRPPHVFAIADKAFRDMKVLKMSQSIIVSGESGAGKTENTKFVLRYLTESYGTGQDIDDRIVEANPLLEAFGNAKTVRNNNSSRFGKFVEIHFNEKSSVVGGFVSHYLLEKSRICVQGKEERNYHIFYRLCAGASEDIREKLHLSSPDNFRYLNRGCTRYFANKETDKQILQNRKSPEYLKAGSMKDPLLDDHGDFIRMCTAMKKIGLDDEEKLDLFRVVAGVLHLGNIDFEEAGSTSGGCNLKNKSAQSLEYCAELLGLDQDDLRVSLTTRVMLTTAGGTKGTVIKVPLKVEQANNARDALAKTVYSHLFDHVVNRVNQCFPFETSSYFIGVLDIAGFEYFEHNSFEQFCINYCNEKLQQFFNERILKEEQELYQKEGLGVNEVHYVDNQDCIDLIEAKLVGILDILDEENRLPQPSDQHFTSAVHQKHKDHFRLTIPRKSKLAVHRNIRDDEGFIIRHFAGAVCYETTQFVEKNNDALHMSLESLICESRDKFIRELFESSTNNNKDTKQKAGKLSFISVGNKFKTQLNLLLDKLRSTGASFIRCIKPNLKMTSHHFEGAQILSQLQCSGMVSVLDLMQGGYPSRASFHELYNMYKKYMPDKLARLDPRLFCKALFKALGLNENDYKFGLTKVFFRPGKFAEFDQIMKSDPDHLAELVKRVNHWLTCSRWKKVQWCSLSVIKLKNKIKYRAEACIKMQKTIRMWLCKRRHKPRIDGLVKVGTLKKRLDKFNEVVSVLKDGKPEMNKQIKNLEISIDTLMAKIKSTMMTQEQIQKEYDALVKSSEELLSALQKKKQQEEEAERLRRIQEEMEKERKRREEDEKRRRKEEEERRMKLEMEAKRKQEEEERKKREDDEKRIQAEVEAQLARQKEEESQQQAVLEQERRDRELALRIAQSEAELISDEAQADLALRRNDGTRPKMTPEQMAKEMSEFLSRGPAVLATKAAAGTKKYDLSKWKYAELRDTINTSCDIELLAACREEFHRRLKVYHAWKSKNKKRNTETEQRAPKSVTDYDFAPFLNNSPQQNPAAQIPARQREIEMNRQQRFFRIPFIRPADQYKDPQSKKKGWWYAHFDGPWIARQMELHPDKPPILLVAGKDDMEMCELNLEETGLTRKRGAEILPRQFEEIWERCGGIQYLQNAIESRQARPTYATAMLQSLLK

For “calmodulin (CaM), light chain of myosin VI (from UniProt P0DP23 1-149) (natural protein)”, the stoichiometry N was 2.

— paper PMC10853514
